Source: US20150037328A1 (Pfizer, published 2015)
Changes are numbered by the printed parent chain. Names may count otherwise.

B1: humanized anti-CXCR4 antibody h3G10.1.91.A58B (antibody, V domains shown)
VH: EVQLVESGGGLVQPGGSLRLSCAASGFTFSDYYMSWVRQAPGKGLEWVGFIRHKANFETTEYSTSVKGRFTISRDDSKNSLYLQMNSLKTEDTAVYYCARDLPGFAYWGQGTLVTVSS
VL: DIVMTQSPDSLAVSLGERATINCKSSQSLFNSHTRKNYLAWYQQKPGQPPKLLIYWASARGSGVPDRFSGSGSGTDFTLTISSLQAEDVAVYYCKQSFNLRTFGGGTKVEIK
notes: Whole antibody (detected with an anti-human IgG Fc gamma specific second antibody); also called h3G10.1.91 VH / h3G10.A58B VL; CXCR4 Ab h3G10.1.91.A58B
B2: humanized anti-CXCR4 antibody h3G10.2.37.2.72 (antibody, V domains shown)
VH: B1 VH with E58Y, T60R
VL: B1 VL with H33R, G61E, N99R
B3: humanized anti-CXCR4 antibody h3G10.A57.A58A (antibody, V domains shown)
VH: B1 VH with E58Y
VL: B1 VL with N99R
B4: humanized anti-CXCR4 antibody h3G10 (antibody, V domains shown)
VH: B1 VH with F57G, E58Y
VL: B1 VL with H33R, G61E
B5: humanized anti-CXCR4 antibody h3G10.A57 (antibody, V domains shown)
VH: B1 VH with E58Y
VL: B1 VL with H33R, G61E
B6: humanized anti-CXCR4 antibody h3G10.1.91.A58A (antibody, V domains shown)
VH: B1 VH
VL: B1 VL with N99R
B7: h3G10 VH / h3G10 VL Fab (Fab, V domains shown)
VH: B1 VH with F57G, E58Y
VL: B1 VL with H33R, G61E
notes: Tested as Fab; also called h3G10 Fab
B8: h3G10.1.91 VH / h3G10.2.72 VL Fab (Fab, V domains shown)
VH: B1 VH
VL: B1 VL with H33R, G61E, N99R
notes: Tested as Fab
B9: h3G10.2.37 VH / h3G10.2.72 VL Fab (Fab, V domains shown)
VH: B1 VH with E58Y, T60R
VL: B1 VL with H33R, G61E, N99R
notes: Tested as Fab
B10: h3G10.A57 VH / h3G10 VL Fab (Fab, V domains shown)
VH: B1 VH with E58Y
VL: B1 VL with H33R, G61E
notes: Tested as Fab; also called h3G10.A57 VH / h3G10 L

biological target: T1, human CXCR4 (chemokine (C-X-C motif) receptor 4) (human, UniProt P61073 1-352); test: cell-based or functional assay
T1 sequence (P61073 whole entry): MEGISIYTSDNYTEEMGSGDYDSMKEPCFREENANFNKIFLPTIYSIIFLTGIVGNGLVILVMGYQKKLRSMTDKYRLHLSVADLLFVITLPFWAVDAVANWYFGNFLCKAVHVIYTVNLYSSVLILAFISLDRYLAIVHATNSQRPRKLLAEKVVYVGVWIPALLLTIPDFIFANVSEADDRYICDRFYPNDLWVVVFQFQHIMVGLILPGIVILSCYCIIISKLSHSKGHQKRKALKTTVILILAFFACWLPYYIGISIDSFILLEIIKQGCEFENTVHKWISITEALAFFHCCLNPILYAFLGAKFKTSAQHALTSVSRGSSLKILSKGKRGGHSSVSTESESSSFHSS

Going from B1 to B2, the “IC50 (M), Calcium Flux Activity (average of 3 experiments)” value (“IC50 (M), Calcium Flux Activity” below) falls from 2.17e-09 M to 1.36e-09 M (1.6-fold).

Compared with B3, B4 is 1.5-fold higher in “IC50 (M), Calcium Flux Activity” value: 1.31e-09 M for the first, 2e-09 M for the second.

B5 and B6 are within 1.5-fold of each other in “IC50 (M), Calcium Flux Activity” value: 1.69e-09 M for the first, 2.35e-09 M for the second.

biological target: T1, human CXCR4 (chemokine (C-X-C motif) …); test: cell-based or functional assay; remark: another data set of the same source

B1 and B2 are within 1.5-fold of each other in “EC50 (M), cAMP assay, CHO-K1 cells transfected with human CXCR4” value: 3.92e-08 M for the first, 3.41e-08 M for the second.

For B3, the “EC50 (M), cAMP assay, CHO-K1 cells transfected with human CXCR4” value was 2.43e-08 M.

biological target: T1, human CXCR4 (chemokine (C-X-C motif) …); test: flow cytometry on HPB-ALL cells, Fab at 2.5 µg/ml

Going from B7 to B8, the MFI rises from 2460 to 7020.

First: B9
Second: B10
The MFI of the first is higher: 6240 for the first, 4060 for the second.

biological target: T1, human CXCR4 (chemokine (C-X-C motif) …); test: flow cytometry on HPB-ALL cells, Fab at 0.25 µg/ml

First: B7
Second: B8
The MFI of the first is lower: 563 for the first, 2670 for the second.

First: B9
Second: B10
The MFI of the first is higher: 2920 for the first, 868 for the second.

biological target: T1, human CXCR4 (chemokine (C-X-C motif) …); test: flow cytometry on HPB-ALL cells, Fab at 0.25 µg/mL
Method: Binding of CXCR4 Fabs to CXCR4-expressing cells were measured by flow cytometry on HPB-ALL (Human T cell leukemia) cells. 150,000 HPB-ALL cells were resuspended in 100 uL FACS buffer (1×PBS+0.5% BSA) on 96 well plates. […] After removing the primary antibodies the cells were washed twice with FACS buffer and then resuspended in FACS buffer and 2 uL (3 ug) of 2nd Ab (Alexa Fluor 647-conjugated goat anti-human IgG, F(ab′)2 specific, Jackson ImmunoResearch Laboratories, West Grove Pa.) was then added to each well. The plates were incubated at 4 degree for another 30 min. Fluorescence signals were acquired by cell analyzer LSRII (BD Biosciences, San Jose Calif.).

Compared with B7, B8 is higher in MFI: 1360 for the first, 2350 for the second.

First: B9
Second: B10
The MFI of the first is higher: 2890 for the first, 1340 for the second.

biological target: T1, human CXCR4 (chemokine (C-X-C motif) …); test: flow cytometry on Raji cells, dilution series 0.007-267 nM
Method: (§1) Binding was detected by 2nd Ab (Alexa Fluor 647-conjugated goat anti-human IgG, Fcgamma specific, Jackson ImmunoResearch Laboratories, West Grove Pa.) and acquired with LSRFortessa cell analyzer (BD Biosciences, San Jose Calif.). Curve fit and EC50 calculation was performed with Prism software (GraphPad Software, La Jolla Calif.). Tables 9A and 9B and FIGS. 3A and 3B.

B1 was tested, and the EC50 was 3.05 nM.

biological target: T1, human CXCR4 (chemokine (C-X-C motif) …); test: flow cytometry on HPB-ALL cells, dilution series 0.007-267 nM
Method: as §1

B1 was tested, and the EC50 was 0.27 nM.

biological target: T2, human CXCR4-enriched lipoparticles (LEV101, Integral Molecular) (human, UniProt P61073 1-352); test: biosensor kinetic titration, Fab over captured human CXCR4 lipoparticles
T2 construct: Bought reagent; CXCR4 held in lipoparticles captured by biotinylated WGA on an SA chip; also called Lipoparticles containing CXCR4 proteins
T2 sequence (P61073 whole entry): as above
Method: The binding affinity of each Fab was determined using human CXCR4-enriched lipoparticles (LEV101, Integral Molecular, Philadelphia Pa.). Biotinylated WGA (Sigma Aldrich, St. Louis Mo.)) can be coated on the SA chip to facilitate capturing lipoparticles containing CXCR4 proteins. […] J. Mol. Recognit.

Going from B7 to B8, the Kd falls from 1.9 nM to 0.33 nM (5.8-fold). The second binds more tightly here.

First: B9
Second: B10
The Kd of the first is 3.5-fold lower: 0.35 nM for the first, 1.22 nM for the second. The first binds more tightly here.

Compared with B7, B8 is 6.1-fold lower in koff: 0.003 s⁻¹ for the first, 0.00049 s⁻¹ for the second.

Going from B9 to B10, the koff rises from 0.0008 s⁻¹ to 0.00143 s⁻¹ (1.8-fold).

B7 and B8 are within 1.5-fold of each other in kon: 1.6e+06 M⁻¹ s⁻¹ for the first, 1.5e+06 M⁻¹ s⁻¹ for the second.

Going from B9 to B10, the kon falls from 2.3e+06 M⁻¹ s⁻¹ to 1.17e+06 M⁻¹ s⁻¹ (2-fold).

Compared with B7, B8 is 6-fold higher in “t½” value: 3.9 min for the first, 23.5 min for the second.

Going from B9 to B10, the “t½” value falls from 14.4 min to 8.08 min (1.8-fold).

biological target: T3, cynomolgus CXCR4 (cynomolgus, UniProt Q28474 1-352); test: flow cytometry on Cyno-CXCR4 transfected CHO cells, dilution series 0.007-267 nM
T3 construct: whole, on cells; On Cyno-CXCR4 transfected CHO cells and on HSC-F (cynomolgus T cell line); also called Cyno-CXCR4; CynoCXCR4
T3 sequence (Q28474 whole entry): as the sequence (P61073 whole entry) above, with M24I, N35H, K38R, R146K, N176S counted along it
Method: as §1

For B1, the EC50 was 0.16 nM.

biological target: T3, cynomolgus CXCR4; test: flow cytometry on HSC-F (cynomolgus T cell line) cells, dilution series 0.007-267 nM
Method: as §1

With B1 the EC50 was 2.58 nM.
